The text below walks through data of patent US12630600B2 (MEDIMMUNE LIMITED, priority 2022, dated 2026).

Starred links: 1 amine or outer side, 2 acyl side, 3 side chain; linkers in the order of their positions; H or OH if unused. Non-standard residues stand in square brackets, D forms with d. Groups on a side chain read outwards from the residue. No end group written: not given here. *: point of attachment. C20 diacid = O=C(O)CCCCCCCCCCCCCCCCCCC(=O)*; C18 diacid = O=C(O)CCCCCCCCCCCCCCCCC(=O)*; γGlu = O=C(O)[C@H](CCC(=O)[*:2])N[*:1]; αMeF = C[C@](N)(Cc1ccccc1)C(=O)O; AEEA = NCCOCCOCC(=O)O; Aib = CC(C)(N)C(=O)O

B1: Peptide 454 (peptide)
peptide: H[Aib]QGTFTSDVSK[αMeF]LDKK([AEEA-AEEA-γGlu-C20 diacid])RAQDFVRWLEA[Aib]G-NH2
modifications: N-terminus assumed
SMILES: CC(C)C[C@H](NC(=O)[C@H](Cc1c[nH]c2ccccc12)NC(=O)[C@H](CCCNC(=N)N)NC(=O)[C@@H](NC(=O)[C@H](Cc1ccccc1)NC(=O)[C@H](CC(=O)O)NC(=O)[C@H](CCC(N)=O)NC(=O)[C@H](C)NC(=O)[C@H](CCCNC(=N)N)NC(=O)[C@H](CCCCNC(=O)COCCOCCNC(=O)COCCOCCNC(=O)CC[C@H](NC(=O)CCCCCCCCCCCCCCCCCCC(=O)O)C(=O)O)NC(=O)[C@H](CCCCN)NC(=O)[C@H](CC(=O)O)NC(=O)[C@H](CC(C)C)NC(=O)[C@](C)(Cc1ccccc1)NC(=O)[C@H](CCCCN)NC(=O)[C@H](CO)NC(=O)[C@@H](NC(=O)[C@H](CC(=O)O)NC(=O)[C@H](CO)NC(=O)[C@@H](NC(=O)[C@H](Cc1ccccc1)NC(=O)[C@@H](NC(=O)CNC(=O)[C@H](CCC(N)=O)NC(=O)C(C)(C)NC(=O)[C@@H](N)Cc1c[nH]cn1)[C@@H](C)O)[C@@H](C)O)C(C)C)C(C)C)C(=O)N[C@@H](CCC(=O)O)C(=O)N[C@@H](C)C(=O)NC(C)(C)C(=O)NCC(N)=O
B2: Peptide 462 (peptide)
peptide: H[Aib]QGTFTSDVSK[αMeF]LDTK([AEEA-AEEA-γGlu-C18 diacid])RARDFVQWLLEAG-OH
modifications: N-terminus assumed
SMILES: CC(C)C[C@H](NC(=O)[C@H](CC(C)C)NC(=O)[C@H](Cc1c[nH]c2ccccc12)NC(=O)[C@H](CCC(N)=O)NC(=O)[C@@H](NC(=O)[C@H](Cc1ccccc1)NC(=O)[C@H](CC(=O)O)NC(=O)[C@H](CCCNC(=N)N)NC(=O)[C@H](C)NC(=O)[C@H](CCCNC(=N)N)NC(=O)[C@H](CCCCNC(=O)COCCOCCNC(=O)COCCOCCNC(=O)CC[C@H](NC(=O)CCCCCCCCCCCCCCCCC(=O)O)C(=O)O)NC(=O)[C@@H](NC(=O)[C@H](CC(=O)O)NC(=O)[C@H](CC(C)C)NC(=O)[C@](C)(Cc1ccccc1)NC(=O)[C@H](CCCCN)NC(=O)[C@H](CO)NC(=O)[C@@H](NC(=O)[C@H](CC(=O)O)NC(=O)[C@H](CO)NC(=O)[C@@H](NC(=O)[C@H](Cc1ccccc1)NC(=O)[C@@H](NC(=O)CNC(=O)[C@H](CCC(N)=O)NC(=O)C(C)(C)NC(=O)[C@@H](N)Cc1c[nH]cn1)[C@@H](C)O)[C@@H](C)O)C(C)C)[C@@H](C)O)C(C)C)C(=O)N[C@@H](CCC(=O)O)C(=O)N[C@@H](C)C(=O)NCC(=O)O
B3: Peptide 465 (peptide)
peptide: H[Aib]QGTFTSDVSK[αMeF]LDLK([AEEA-AEEA-γGlu-γGlu-C18 diacid])RAQDFVQWLL[Aib]T-OH
modifications: N-terminus assumed
SMILES: CC(C)C[C@H](NC(=O)[C@H](CC(=O)O)NC(=O)[C@H](CC(C)C)NC(=O)[C@](C)(Cc1ccccc1)NC(=O)[C@H](CCCCN)NC(=O)[C@H](CO)NC(=O)[C@@H](NC(=O)[C@H](CC(=O)O)NC(=O)[C@H](CO)NC(=O)[C@@H](NC(=O)[C@H](Cc1ccccc1)NC(=O)[C@@H](NC(=O)CNC(=O)[C@H](CCC(N)=O)NC(=O)C(C)(C)NC(=O)[C@@H](N)Cc1c[nH]cn1)[C@@H](C)O)[C@@H](C)O)C(C)C)C(=O)N[C@@H](CCCCNC(=O)COCCOCCNC(=O)COCCOCCNC(=O)CC[C@H](NC(=O)CC[C@H](NC(=O)CCCCCCCCCCCCCCCCC(=O)O)C(=O)O)C(=O)O)C(=O)N[C@@H](CCCNC(=N)N)C(=O)N[C@@H](C)C(=O)N[C@@H](CCC(N)=O)C(=O)N[C@@H](CC(=O)O)C(=O)N[C@@H](Cc1ccccc1)C(=O)N[C@H](C(=O)N[C@@H](CCC(N)=O)C(=O)N[C@@H](Cc1c[nH]c2ccccc12)C(=O)N[C@@H](CC(C)C)C(=O)N[C@@H](CC(C)C)C(=O)NC(C)(C)C(=O)N[C@H](C(=O)O)[C@@H](C)O)C(C)C
B4: Peptide 456 (peptide)
peptide: H[Aib]QGTFTSDVSK[αMeF]LDRK([AEEA-AEEA-γGlu-C20 diacid])RAQDFVRWLL[Aib]E-NH2
modifications: N-terminus assumed
SMILES: CC(C)C[C@H](NC(=O)[C@H](Cc1c[nH]c2ccccc12)NC(=O)[C@H](CCCNC(=N)N)NC(=O)[C@@H](NC(=O)[C@H](Cc1ccccc1)NC(=O)[C@H](CC(=O)O)NC(=O)[C@H](CCC(N)=O)NC(=O)[C@H](C)NC(=O)[C@H](CCCNC(=N)N)NC(=O)[C@H](CCCCNC(=O)COCCOCCNC(=O)COCCOCCNC(=O)CC[C@H](NC(=O)CCCCCCCCCCCCCCCCCCC(=O)O)C(=O)O)NC(=O)[C@H](CCCNC(=N)N)NC(=O)[C@H](CC(=O)O)NC(=O)[C@H](CC(C)C)NC(=O)[C@](C)(Cc1ccccc1)NC(=O)[C@H](CCCCN)NC(=O)[C@H](CO)NC(=O)[C@@H](NC(=O)[C@H](CC(=O)O)NC(=O)[C@H](CO)NC(=O)[C@@H](NC(=O)[C@H](Cc1ccccc1)NC(=O)[C@@H](NC(=O)CNC(=O)[C@H](CCC(N)=O)NC(=O)C(C)(C)NC(=O)[C@@H](N)Cc1c[nH]cn1)[C@@H](C)O)[C@@H](C)O)C(C)C)C(C)C)C(=O)N[C@@H](CC(C)C)C(=O)NC(C)(C)C(=O)N[C@@H](CCC(=O)O)C(N)=O
B5: Peptide 455 (peptide)
peptide: H[Aib]QGTFTSDVSK[αMeF]LDKK([AEEA-AEEA-γGlu-γGlu-C20 diacid])RAQDFVRWLL[Aib]E-NH2
modifications: N-terminus assumed
SMILES: CC(C)C[C@H](NC(=O)[C@H](Cc1c[nH]c2ccccc12)NC(=O)[C@H](CCCNC(=N)N)NC(=O)[C@@H](NC(=O)[C@H](Cc1ccccc1)NC(=O)[C@H](CC(=O)O)NC(=O)[C@H](CCC(N)=O)NC(=O)[C@H](C)NC(=O)[C@H](CCCNC(=N)N)NC(=O)[C@H](CCCCNC(=O)COCCOCCNC(=O)COCCOCCNC(=O)CC[C@H](NC(=O)CC[C@H](NC(=O)CCCCCCCCCCCCCCCCCCC(=O)O)C(=O)O)C(=O)O)NC(=O)[C@H](CCCCN)NC(=O)[C@H](CC(=O)O)NC(=O)[C@H](CC(C)C)NC(=O)[C@](C)(Cc1ccccc1)NC(=O)[C@H](CCCCN)NC(=O)[C@H](CO)NC(=O)[C@@H](NC(=O)[C@H](CC(=O)O)NC(=O)[C@H](CO)NC(=O)[C@@H](NC(=O)[C@H](Cc1ccccc1)NC(=O)[C@@H](NC(=O)CNC(=O)[C@H](CCC(N)=O)NC(=O)C(C)(C)NC(=O)[C@@H](N)Cc1c[nH]cn1)[C@@H](C)O)[C@@H](C)O)C(C)C)C(C)C)C(=O)N[C@@H](CC(C)C)C(=O)NC(C)(C)C(=O)N[C@@H](CCC(=O)O)C(N)=O
B6: Peptide 451 (peptide)
peptide: H[Aib]QGTFTSDVSK[αMeF]LDKK([AEEA-AEEA-γGlu-C20 diacid])RARDFVLWLL[Aib]E-NH2
modifications: N-terminus assumed
SMILES: CC(C)C[C@H](NC(=O)[C@H](Cc1c[nH]c2ccccc12)NC(=O)[C@H](CC(C)C)NC(=O)[C@@H](NC(=O)[C@H](Cc1ccccc1)NC(=O)[C@H](CC(=O)O)NC(=O)[C@H](CCCNC(=N)N)NC(=O)[C@H](C)NC(=O)[C@H](CCCNC(=N)N)NC(=O)[C@H](CCCCNC(=O)COCCOCCNC(=O)COCCOCCNC(=O)CC[C@H](NC(=O)CCCCCCCCCCCCCCCCCCC(=O)O)C(=O)O)NC(=O)[C@H](CCCCN)NC(=O)[C@H](CC(=O)O)NC(=O)[C@H](CC(C)C)NC(=O)[C@](C)(Cc1ccccc1)NC(=O)[C@H](CCCCN)NC(=O)[C@H](CO)NC(=O)[C@@H](NC(=O)[C@H](CC(=O)O)NC(=O)[C@H](CO)NC(=O)[C@@H](NC(=O)[C@H](Cc1ccccc1)NC(=O)[C@@H](NC(=O)CNC(=O)[C@H](CCC(N)=O)NC(=O)C(C)(C)NC(=O)[C@@H](N)Cc1c[nH]cn1)[C@@H](C)O)[C@@H](C)O)C(C)C)C(C)C)C(=O)N[C@@H](CC(C)C)C(=O)NC(C)(C)C(=O)N[C@@H](CCC(=O)O)C(N)=O
B7: Peptide 452 (peptide)
peptide: H[Aib]QGTFTSDVSK[αMeF]LDKK([AEEA-AEEA-γGlu-C20 diacid])RALDFVRWLL[Aib]E-NH2
modifications: N-terminus assumed
SMILES: CC(C)C[C@H](NC(=O)[C@H](C)NC(=O)[C@H](CCCNC(=N)N)NC(=O)[C@H](CCCCNC(=O)COCCOCCNC(=O)COCCOCCNC(=O)CC[C@H](NC(=O)CCCCCCCCCCCCCCCCCCC(=O)O)C(=O)O)NC(=O)[C@H](CCCCN)NC(=O)[C@H](CC(=O)O)NC(=O)[C@H](CC(C)C)NC(=O)[C@](C)(Cc1ccccc1)NC(=O)[C@H](CCCCN)NC(=O)[C@H](CO)NC(=O)[C@@H](NC(=O)[C@H](CC(=O)O)NC(=O)[C@H](CO)NC(=O)[C@@H](NC(=O)[C@H](Cc1ccccc1)NC(=O)[C@@H](NC(=O)CNC(=O)[C@H](CCC(N)=O)NC(=O)C(C)(C)NC(=O)[C@@H](N)Cc1c[nH]cn1)[C@@H](C)O)[C@@H](C)O)C(C)C)C(=O)N[C@@H](CC(=O)O)C(=O)N[C@@H](Cc1ccccc1)C(=O)N[C@H](C(=O)N[C@@H](CCCNC(=N)N)C(=O)N[C@@H](Cc1c[nH]c2ccccc12)C(=O)N[C@@H](CC(C)C)C(=O)N[C@@H](CC(C)C)C(=O)NC(C)(C)C(=O)N[C@@H](CCC(=O)O)C(N)=O)C(C)C

One experiment addresses human GLP-1 receptor (human, UniProt P43220). The experiment is described as follows: cell-based or functional assay.
As for B1, the “cAMP production EC50” value turned out to be 0.173 nM.
Regarding B2, the “cAMP production EC50” value turned out to be 0.0395 nM.
For H[Aib]QGTFTSDVSK[αMeF]LDKK([AEEA-AEEA-γGlu-C20 diacid])RAQDFVRWLLAE-NH2 [Peptide 460], the “cAMP production EC50” value was determined as 0.117 nM.
Turning to B3, the “cAMP production EC50” value amounted to 0.485 nM.
For the molecule H[Aib]QGTFTSDVSK[αMeF]LDKK([AEEA-AEEA-γGlu-C20 diacid])RAQDFVRWLLE[Aib]G-NH2 [Peptide 453], the “cAMP production EC50” value was 0.17 nM.
With B4, the “cAMP production EC50” value was 0.133 nM.
On the same count and under the same terms, with B5 the figure was 0.127 nM; with B6, 0.895 nM; with B7, 0.495 nM.

The target in a further experiment is human glucagon receptor (human, UniProt P47871). The experiment is described as follows: cell-based or functional assay.
Consider B1, for which the “cAMP production EC50” value was determined as 0.274 nM.
As for B2, the “cAMP production EC50” value was found to be 0.0892 nM.
As for H[Aib]QGTFTSDVSK[αMeF]LDKK([AEEA-AEEA-γGlu-C20 diacid])RAQDFVRWLLAE-NH2 [Peptide 460], the “cAMP production EC50” value came to 0.0665 nM.
With B3, the “cAMP production EC50” value is 0.436 nM.
For H[Aib]QGTFTSDVSK[αMeF]LDKK([AEEA-AEEA-γGlu-C20 diacid])RAQDFVRWLLE[Aib]G-NH2 [Peptide 453], the “cAMP production EC50” value came to 0.162 nM.
In the case of B4, the “cAMP production EC50” value came out at 0.0803 nM.
For B5, the “cAMP production EC50” value came to 0.114 nM.
On to B6, for which the “cAMP production EC50” value came out at 0.503 nM.
Take B7: the “cAMP production EC50” value was 0.151 nM.
